One block for each binder: values may come before it. Primed or numbered codes have the meaning given here. Ends that are not written are not given here. FITC′ = fluorescein isothiocyanate
Experiments:
FITC-labeled β2 peptide = target: T1, FITC-labeled β2 peptide (rat, UniProt P63138); assay: FP
T1 peptide: {FITC′}-MWRVRKRGYFGIWSFPLII

FITC-labeled α1 peptide = target: T2, FITC-labeled α1 peptide (rat); assay: FP
T2 peptide: {FITC′}-QPSQDELKDNTTVFT

- Kd (FITC-labeled β2 peptide): 0.82 µM
B1: G8 scFv (anti-β2 subunit scFv), soluble protein (scFv, V domains shown)
VH: EVQLVQSGAEVKKPGATVKISCKVSGYTFTDYYMHWVQQAPGKGLEWMGLVDPEDGETIYAEKFQGRVTITADTSTDTAYMELSSLRSEDTAVYYCATTPPHDYYDSSGLDYWGQGTLVTVSS
VL: DIQMTQSPSSVSASVGDRVTITCRASQGINRWLAWYQQKPGKAPKLLIYAASNLQSGVPSRFSGSGSGTDFSLTISSLQPEDFATYYCQQSYSPPSTFGGGTKLEIK

- Kd (FITC-labeled α1 peptide): 3 µM
B2: A10 scFv (anti-α1 subunit-specific scFv), soluble protein (scFv, V domains shown)
VH: EVQLVQSGAEVKKPGASVKVSCKASGYTFTSYYMHWVRQAPGQGLEWMGIINPSGGSTSYAQKFQGRVTMTRDTSTSTVYMELSSLRSEDTAVYYCARDGWGGSSFLDYWGQGTLVTVSS
VL: SYELTQPPSVSVSPGQTARITCSGDALPKKYAYWYQQKSGQAPVLVIYEDSKRPSGIPERFSGSSSGTMATLTISGAQVEDEADYYCYSKDNTGYQMVFGGGTKLTVL

— article PMC3929611 (2014)
